# Reference: the supplement of paper PMC9112550, “Optimization of the antimicrobial peptide Bac7 by deep mutational scanning” (BMC Biology, 2022)
# Test system: Escherichia coli TOP10
# Test: shrunken log2 fold change of peptide-encoding DNA abundance (4.5 h post-induction vs induction); higher = less antimicrobial activity (less host growth inhibition)
# Conditions: time post-induction: 4.5 h; library: site-saturation at positions 5, 18, 19, 20
# 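Also: peptides expressed intracellularly from a pBAD plasmid library in pooled LB shake-flask culture, induced with 0.3% L-arabinose, DNA abundance read by NGS, three biological replicates, DESeq2 with apeglm shrinkage.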
row,Sequence,shrunken log2 fold change
1,RRIRNRPPRLPRPRPRPFLSPRP,-0.246
2,RRIRNRPPRLPRPRPRPFMSPRP,-0.17
3,RRIRNRPPRLPRPRPRPFNMPRP,-0.149
4,RRIRNRPPRLPRPRPRPFPEPRP,-0.293
5,RRIRNRPPRLPRPRPRPFQAPRP,-0.0439
6,RRIRNRPPRLPRPRPRPFRCPRP,-0.0563
7,RRIRNRPPRLPRPRPRPFRIPRP,-0.0132
8,RRIRNRPPRLPRPRPRPFRKPRP,-0.0467
9,RRIRNRPPRLPRPRPRPFSWPRP,0.0512
10,RRIRNRPPRLPRPRPRPFVKPRP,-0.669
11,RRIRNRPPRLPRPRPRPFWRPRP,-0.0018
12,RRIRNRPPRLPRPRPRPGAVPRP,0.248
13,RRIRNRPPRLPRPRPRPGDIPRP,0.0338
14,RRIRNRPPRLPRPRPRPGELPRP,-0.0397
15,RRIRNRPPRLPRPRPRPGFFPRP,0.263
16,RRIRNRPPRLPRPRPRPGFRPRP,0.114
17,RRIRNRPPRLPRPRPRPGFWPRP,0.0198
18,RRIRNRPPRLPRPRPRPGGGPRP,0.723
19,RRIRNRPPRLPRPRPRPGGLPRP,-0.13
20,RRIRNRPPRLPRPRPRPGGVPRP,0.239
21,RRIRNRPPRLPRPRPRPGGWPRP,0.662
22,RRIRNRPPRLPRPRPRPGHPPRP,-0.0813
23,RRIRNRPPRLPRPRPRPGIFPRP,-0.0122
24,RRIRNRPPRLPRPRPRPGIHPRP,0.0285
25,RRIRNRPPRLPRPRPRPGKKPRP,-0.00783

row,Sequence,shrunken log2 fold change
1,RRIRNRPPRLPRPRPRPGKYPRP,-0.117
2,RRIRNRPPRLPRPRPRPGMDPRP,-0.0895
3,RRIRNRPPRLPRPRPRPGMKPRP,-0.272
4,RRIRNRPPRLPRPRPRPGMNPRP,-0.02
5,RRIRNRPPRLPRPRPRPGMPPRP,-0.107
6,RRIRNRPPRLPRPRPRPGMVPRP,-0.23
7,RRIRNRPPRLPRPRPRPGMWPRP,0.397
8,RRIRNRPPRLPRPRPRPGNCPRP,-0.00183
9,RRIRNRPPRLPRPRPRPGNHPRP,-0.265
10,RRIRNRPPRLPRPRPRPGPEPRP,0.684
11,RRIRNRPPRLPRPRPRPGRAPRP,0.177
12,RRIRNRPPRLPRPRPRPGRHPRP,0.00674
13,RRIRNRPPRLPRPRPRPGRIPRP,-0.0181
14,RRIRNRPPRLPRPRPRPGVSPRP,-0.279
15,RRIRNRPPRLPRPRPRPGWCPRP,2.24
16,RRIRNRPPRLPRPRPRPGWHPRP,-0.154
17,RRIRNRPPRLPRPRPRPGWLPRP,0.174
18,RRIRNRPPRLPRPRPRPHAAPRP,0.545
19,RRIRNRPPRLPRPRPRPHAIPRP,-0.673
20,RRIRNRPPRLPRPRPRPHALPRP,0.0517
21,RRIRNRPPRLPRPRPRPHCEPRP,-0.778
22,RRIRNRPPRLPRPRPRPHCVPRP,0.0245
23,RRIRNRPPRLPRPRPRPHDAPRP,-0.116
24,RRIRNRPPRLPRPRPRPHDNPRP,-0.511
25,RRIRNRPPRLPRPRPRPHEQPRP,-0.066

row,Sequence,shrunken log2 fold change
1,RRIRNRPPRLPRPRPRPHFWPRP,-0.285
2,RRIRNRPPRLPRPRPRPHHDPRP,-1.01
3,RRIRNRPPRLPRPRPRPHIAPRP,-0.621
4,RRIRNRPPRLPRPRPRPHIRPRP,-0.0139
5,RRIRNRPPRLPRPRPRPHKNPRP,-0.237
6,RRIRNRPPRLPRPRPRPHLEPRP,0.0549
7,RRIRNRPPRLPRPRPRPHLVPRP,-0.0893
8,RRIRNRPPRLPRPRPRPHMIPRP,-0.168
9,RRIRNRPPRLPRPRPRPHNHPRP,-0.739
10,RRIRNRPPRLPRPRPRPHPDPRP,-0.15
11,RRIRNRPPRLPRPRPRPHPIPRP,0.033
12,RRIRNRPPRLPRPRPRPHQYPRP,-0.458
13,RRIRNRPPRLPRPRPRPHRFPRP,0.0175
14,RRIRNRPPRLPRPRPRPHSDPRP,0.0373
15,RRIRNRPPRLPRPRPRPHWIPRP,-0.322
16,RRIRNRPPRLPRPRPRPHWYPRP,-0.0582
17,RRIRNRPPRLPRPRPRPIDPPRP,-0.127
18,RRIRNRPPRLPRPRPRPIECPRP,0.0138
19,RRIRNRPPRLPRPRPRPIEMPRP,-0.141
20,RRIRNRPPRLPRPRPRPIETPRP,-0.0081
21,RRIRNRPPRLPRPRPRPIEYPRP,-0.0134
22,RRIRNRPPRLPRPRPRPIFGPRP,-0.0237
23,RRIRNRPPRLPRPRPRPIFPPRP,-0.281
24,RRIRNRPPRLPRPRPRPILQPRP,-0.387
25,RRIRNRPPRLPRPRPRPIMNPRP,-0.619

row,Sequence,shrunken log2 fold change
1,RRIRNRPPRLPRPRPRPIMRPRP,0.00621
2,RRIRNRPPRLPRPRPRPIMYPRP,-0.309
3,RRIRNRPPRLPRPRPRPINDPRP,0.0259
4,RRIRNRPPRLPRPRPRPINTPRP,-0.574
5,RRIRNRPPRLPRPRPRPIPCPRP,-0.0228
6,RRIRNRPPRLPRPRPRPIPKPRP,-0.0467
7,RRIRNRPPRLPRPRPRPIPMPRP,-0.026
8,RRIRNRPPRLPRPRPRPIPSPRP,0.0499
9,RRIRNRPPRLPRPRPRPIQMPRP,-0.0365
10,RRIRNRPPRLPRPRPRPISNPRP,0.0351
11,RRIRNRPPRLPRPRPRPISQPRP,-0.261
12,RRIRNRPPRLPRPRPRPITHPRP,-0.644
13,RRIRNRPPRLPRPRPRPITVPRP,-0.0598
14,RRIRNRPPRLPRPRPRPIVHPRP,-0.205
15,RRIRNRPPRLPRPRPRPIWQPRP,0.0123
16,RRIRNRPPRLPRPRPRPKAAPRP,3.06
17,RRIRNRPPRLPRPRPRPKAFPRP,-0.0608
18,RRIRNRPPRLPRPRPRPKAQPRP,0.0241
19,RRIRNRPPRLPRPRPRPKASPRP,-0.127
20,RRIRNRPPRLPRPRPRPKCIPRP,-0.223
21,RRIRNRPPRLPRPRPRPKCLPRP,0.0771
22,RRIRNRPPRLPRPRPRPKCPPRP,-0.124
23,RRIRNRPPRLPRPRPRPKCRPRP,0.0642
24,RRIRNRPPRLPRPRPRPKDNPRP,-0.484
25,RRIRNRPPRLPRPRPRPKDPPRP,0.0665

row,Sequence,shrunken log2 fold change
1,RRIRNRPPRLPRPRPRPKFEPRP,0.0146
2,RRIRNRPPRLPRPRPRPKFGPRP,0.0252
3,RRIRNRPPRLPRPRPRPKGRPRP,0.0238
4,RRIRNRPPRLPRPRPRPKHAPRP,0.0877
5,RRIRNRPPRLPRPRPRPKHRPRP,0.0319
6,RRIRNRPPRLPRPRPRPKKDPRP,0.0489
7,RRIRNRPPRLPRPRPRPKKQPRP,-0.0788
8,RRIRNRPPRLPRPRPRPKKRPRP,0.201
9,RRIRNRPPRLPRPRPRPKMCPRP,-0.0269
10,RRIRNRPPRLPRPRPRPKNNPRP,-0.407
11,RRIRNRPPRLPRPRPRPKQIPRP,-0.294
12,RRIRNRPPRLPRPRPRPKQKPRP,0.0568
13,RRIRNRPPRLPRPRPRPKRIPRP,-0.107
14,RRIRNRPPRLPRPRPRPKRKPRP,0.226
15,RRIRNRPPRLPRPRPRPKRSPRP,0.115
16,RRIRNRPPRLPRPRPRPKTTPRP,0.118
17,RRIRNRPPRLPRPRPRPKVAPRP,0.0368
18,RRIRNRPPRLPRPRPRPKVFPRP,0.0215
19,RRIRNRPPRLPRPRPRPKVGPRP,0.148
20,RRIRNRPPRLPRPRPRPKYDPRP,-0.624
21,RRIRNRPPRLPRPRPRPLAGPRP,0.148
22,RRIRNRPPRLPRPRPRPLCGPRP,-0.13
23,RRIRNRPPRLPRPRPRPLCHPRP,-0.359
24,RRIRNRPPRLPRPRPRPLCKPRP,-0.146
25,RRIRNRPPRLPRPRPRPLDAPRP,0.0657

row,Sequence,shrunken log2 fold change
1,RRIRNRPPRLPRPRPRPLDLPRP,0.00897
2,RRIRNRPPRLPRPRPRPLDVPRP,-0.251
3,RRIRNRPPRLPRPRPRPLHCPRP,-0.168
4,RRIRNRPPRLPRPRPRPLHIPRP,-0.363
5,RRIRNRPPRLPRPRPRPLHPPRP,0.0757
6,RRIRNRPPRLPRPRPRPLHRPRP,-0.249
7,RRIRNRPPRLPRPRPRPLHSPRP,-0.16
8,RRIRNRPPRLPRPRPRPLHVPRP,0.251
9,RRIRNRPPRLPRPRPRPLHYPRP,-0.147
10,RRIRNRPPRLPRPRPRPLIAPRP,-0.305
11,RRIRNRPPRLPRPRPRPLICPRP,-0.771
12,RRIRNRPPRLPRPRPRPLIDPRP,-0.0832
13,RRIRNRPPRLPRPRPRPLILPRP,-0.303
14,RRIRNRPPRLPRPRPRPLITPRP,-0.173
15,RRIRNRPPRLPRPRPRPLKTPRP,-0.0746
16,RRIRNRPPRLPRPRPRPLLNPRP,-0.443
17,RRIRNRPPRLPRPRPRPLMIPRP,-0.0419
18,RRIRNRPPRLPRPRPRPLNFPRP,-0.71
19,RRIRNRPPRLPRPRPRPLNQPRP,-0.225
20,RRIRNRPPRLPRPRPRPLQKPRP,-0.0108
21,RRIRNRPPRLPRPRPRPLQYPRP,-0.0315
22,RRIRNRPPRLPRPRPRPLSKPRP,-0.176
23,RRIRNRPPRLPRPRPRPLTWPRP,-0.182
24,RRIRNRPPRLPRPRPRPLYAPRP,-0.0693
25,RRIRNRPPRLPRPRPRPLYVPRP,-0.641
